Assay results as given in the DeepSol protein solubility set.

Experiment: soluble on expression in E. coli; label from the status in PepcDB or PDB records

Soluble on expression in E. coli, not soluble:
MGSDKIHHHHHHMALMTNKTRALLIGGHGKVALLATPMLIDASVQVTSMYRNPDHRSEIEALGATTLERDVTTLSVEDWADLLKDFDVVVWSAGNGGKNGADATYAIDRDAAIASIDGAASLGEKAPRYIMVSYIGSSTHTIDPSASFYPYAESKKAADEHLSSTNLDYLILAPAALTLDEVNGVEVIADTNEAAAGRTTSRVLVAEVITEFVVRDFPQTRVLPFVDGESPVSSIS
MGSDKIHHHHHHMALNLKKLPILFLSDSTTSVAISREAKAGRIRKIGPRLYTSNTSDDPAYIIRQNWLQALTLLFPGCVVSNRTALESRVSPAGRVYVTGDYARTLELHGTKFVQVKGSPPVEGDTPLLGIFMASRARALLENLTPSRERSGGELKNLPREMIERRLAELLNVEKEDSVNRLRDQARQIAPLLGLEKEFDELDDLIGTLLRTRKATLADPVAKAHQLGTPYDPHALERVETLWSVLASMPHNYRPTNAGTGTPFYTVSFFDAYFSNYIEGTRFKVDEAKEIVDSGVIPAIRPADGHDILGTYRVVSSLENMRRTPKNPDEFIELLQSRHADIMVGRPDKRPGEFKEEVNYAGATRFVDPDLVRGTLSQGFSLYKSLEHPFARALLIMFLVAEVHPFDDGNGRAARAMMNSELITAEETRIIIPSVFRNEYVASLKRMTNHLQPESFISVMSFAQEFVSRISFDSYASARVQMEGCNAFDDPADDKRLLQPSIS
MGSDKIHHHHHHMANALLQKWVERAERRALFWWQPKNGGVNMGDHLSKVIVSCVLALQDKTLLEKRDLRKKLIATGSVLHFAKDGDTVWGSGINGKIPAERNTFSTLDVRAVRGPKTRAFLLERGIAVPEVYGDPGLLTPMFFPADALGPVTKRPFAIVPHFNEPVEKYSAYAEHLVFPNVKPATFMSALLGAKFVISSSLHGLILAEAYGIPAVYLDWGNGEDRFKYDDYYHGTRRMQWHAGHSVEECMELGGNGSFDLERLQAGLLAAFPYDLW
MGSDKIHHHHHHMANKIKVLLTGAGSTLGREILAQLLTMRKVFEISVLDIKRGHTMAFFEKYKKEIHIFYGDCSVQDNTVEACKGQDFVIHCQSLEKANADKRLRLAEDVNTMGTRYIIENLERFSPGAYLLYISTVGVYGDRLKAPMISADNMTCPSMGDYDALTKLQAEKLVQESSLEWTIYRPGIILGHDSSLLNSSVFCMPLATRFETVHIRDLASACVKAYDHKASLWGRTYNVGGGEACRIVYSDYIRRLFKLLGLGYPEFPDRAFATRNRFGGYFADGDALEAILHFRRHTIEDYFKELAAQQPILKKLANKIFVGVQRKSLEGKSAPLRAIKENDRAKKKYYF
MGSDKIHHHHHHMANVKWTMKAREFVNCNCAYGCPCQFNAMPTHGFCQAVTGIEIESGHHGATKLDGLRLVGIFRWPGAIHQGGGEAAVVVDERASEAQREALLRILGGQDTKPGATIFEVFSTTLEKFHDPIFAPIEFEVDVDARTGRLHVEGVADGHGEPIKNPVTGAEHRARIDLPHGFEYAMAEIGRGWTKATGPIKFEVADTHSHFANLHLTQSGVVH
MGSDKIHHHHHHMAPEDWLRAQMQGEIVALVHSHPGGLPWLSEADRRLQVQSDLPWWLVCRGTIHKFRCVPHLTGRRFEHGVTDCYTLFRDAYHLAGIEMPDFHRGDDWWRHGQNLYLDNLEATGLYQVPLSSAQPGDVLLCCFGSSVPNHAAIYCGDGELLHHIPEQLSKRERYTDKWQRRTHSLWRHREWHASAFTGICNDLAAASTFV
MGSDKIHHHHHHMAPLAPLALSELGPKLDRSIDPLWISRQSLEAEPNAFKPGCGWLPNDWMPLESIRKALRSATRREDDSLLGYSSPLGLSALRDLLARRAQSKGIEANLNQVLLTDSGTQAIDLVCRFLLKPDDVVLIDDPCYFNFHALLKVHQVKVVGIPYTPNGPDLEAFKEAIESYNPRLYITNSGIHNPTGATLSLSTAHQLLKLIDQSNLIVIEDDIFSDFEYTPAPRLAALDNLSRVIFIGSFSKTLSASIRCGYIIAKPEWIDQIADLKIATSFSHNGLSAKILHTALTDGSYRKHLDLLKVRLAQAMQETIAKLKSIGIEPWIEPKAGIFVWCRLPEGVDAAKIARFCLNRQVILAPGNAFSQAQSAGQFIRFNITQSNHDYIYKTLAEALLQESLEKQV
MGSDKIHHHHHHMARETQCNRQTDCAQCPKATEGILVHRKFPKGQHFPPDKCTQNCILFILQGELLVNSEEYPGTTLREGQFILQSIGSKLELLALTDVNYVVYWFNEPPLICEQRYHEILQQSEAPLTYTPLVMTQRITNFMKDICDYLDEQMPCGAFIDLKCQELMYLIICYYPIPQLSKFFYPISSYTESFQYFVMQNYEKVKNVEEFAHLGGYTTTTFRRLFKNMYGVPVYEWILSKKREGILEDLQHTKQRITEISNRYGFDSLSHFAHFCKASFGDSPRALRTRAARGEKITALKTE
MGSDKIHHHHHHMARSWLDYKTQAWVQWCPGCGDFGILNSIYRAVSELGIDPENLAVVGGIGCSGRTTYYVKGSNFHALHGRAIPVATGVKLANPHLNVIVAGGDGDLMGIGGGHFVALGRRNLNITVLLFDNAVYGLTKGQAAPTLPAWVKTKALSMPNIHDNINPVLLAFAAGYTFIARGYAYHTQQLKELIKTAVRHRGAALVDILQPCPTYNNIMTNKWYEERIYYVDQEEGYDPIIRTPEEFQKKAPAIAAKLMEFGDRIPLGILYWNQTRESFEERLEKIMPGYMSAPPATRRIELEGKPFLHPFDIFKDRLVTP
MGSDKIHHHHHHMARVPRFALVERDSSNHCTWRAHDLEFVFEEPGARDKFLELVGRYKDRYGVEIRSYCLMGTHPHVTCTCRQEQVQFSRFWQVVNGQFARWYNKVRNRRGQVVMERMRTPRIQEGGAHQLTVMRYGDLNPVRAGLVKSPKDWKWSSYRHYAFGEPNPLITDAPEYLALGKTAQERRKAYQALFALPLSESLRTRRVELVSFPFVGDATWVMRRLEAAGLSPPD
MGSDKIHHHHHHMARYTGPLCKLCRREGMKLYLKGERCYTDKCAFDRRPYAPGQHGQRRTKLTQYGIQLRAKQTVKRIYGILERQFERYVEKAMQKAGDTRENLIQILEARLDNVVYRMGFAINRRQARQLVNHGHFLVNGKKVNIPSYLLRPNDVVEVREKSRDLEVIKKAIEANKERSIVPWIEVDYDNYRGTFLRYPSLEEVTDLPVDLQTVIEFYSR
MGSDKIHHHHHHMASFQSFGIPGQLEVIKKALDHVRVGVVITDPALEDNPIVYVNQGFVQMTGYETEEILGKNCRFLQGKHTDPAEVDNIRTALQNKEPVTVQIQNYKKDGTMFWNELNIDPMEIEDKTYFVGIQNDITKQKEYEKLLEDSLTEITALSTPIVPIRNGISALPLVGNLTEERFNSIVCTLTNILSTSKDDYLIIDLSGLAQVNEQTADQIFKLSHLLKLTGTELIITGIKPELAMKMNKLDANFSSLKTYSNVKDAVKVLPIM
MGSDKIHHHHHHMASQRGDTKLQLLRDTSLSHDGLNHTILTLNQLLHQRAPFYGEHLSATTSPTGLSFDEWSCADTYQKLIARFAIAHPSAENQTETKTENETETDKTAATSRTPAFASKSALVSKNAVPSRKDTRKALHSLWGQWYFGLLVPPMMEWIFNAPKTDVETLHWQPQSVFMQVHPSGRVAKFEFKIAKYQPITALTFKKHHGIEPLSRTNTKPSIKIDTEVHSPLSPYKPSVDKELVLQGFILNLLQSSVDRLLTLSPVPAKLYWSHLGYLIHWYLGELGLSQQQNQQLKQALFRRTTFLDGSTNPLYNSINLLIEPEQDSATPYTVARIVTSTASRSKPSPKIHCIRRTCCLRYQLANTGQCHDCPLLSRAKVNVNATKQT
MGSDKIHHHHHHMATELFTWHTLSDTLSDFKSGLSLAQNSGAESLLVLTCSQNNYPEEELNALFHACPLKLFGGIYPMLTLKGDLIKQGALIIGFKEAVDVTLFAQLNQVTNESCLEELITSTLKEKNNFCGQDDFLMFYDALISNIEGFIDCLFEHLDHGINIAGGGAGNLDFIQRHCIFTNSGVHSDAILLVALPRTLNTSVAHGWETFDEPFLVSEAQGQTVQSLNYQPAYEVYCQTIESATEYTFNNTDFFDIAKNFPLGIKDINNNIIVRDPILAKNNHLQCFGNIPINSMVYLLESNIDSLVASTEKAAIALLSKLNKTTITTTMVFDCISRALFMEDEFEKELNVIAEHCHLGALFGVLSLGEIANSQSGAIRLLNKSIVISSW
MGSDKIHHHHHHMATSTTSTPHDAVFKQFLCHPDTARDFLEIHLPSTLRQICNLNTLRLESGSFIEEDLRPHYSDILWSLETSEGEGYIYVVIEHQSTPDAHMAFRLMRYAMAAMQRHLEAGHKTLPLVVPMLFYHGNRSPYPFSLCWLDEFADPVMARKLYATAFPLVDITVVPDDEIMRHRRVALLELIQKHIRQRDLMGLVEQLVALLVKGYANDTQLQSLFNYMMHTGDAARFNTFIRQVAMRIPQHKEKIMTIADRLRQEGHRNGLQQGKQEGQRLAALRIARSMLNDGFDRDTVLRVTGLAPADLASENH
MGSDKIHHHHHHMAVRIVSRQPLTKGWSTDQKYKVQLEDGRLGLLRIAERPAYEAKRLEFQLVENLFGLGLPVAEPLSFWADDLSVYTLYEWVEGQDMNEVATSLSDSVLYDLGCQSGKFLRTLHALPIDQSQRDWNSFYQVKIDNKLAAYQAASHSYPTGPAMIDFVQANRHLLEGRPIAYHHGDFHTGNFLLGPDGKLKILDFDRYDIGDPWEEFNRLIFTADLSPAFARGQVDAYFDGAIPEEFWKLMALYVTVNCLAALSWAEQVDSEQIPMMKLQAQKISEWYEYFNHHLPKWYM
MGSDKIHHHHHHMCRILGYLGTPVLLEDLLYAPDSSLLNQTIGAQMLQMLNLAGFGMAAWDPASHDPHLPFRYRTTQVALFDRNLKALAGKLRPGALLAHIRGVPYNSTVQINEQNCHPFRFEGVPLAMAHNGDLAGFREMRFDLAPHVRPEFARQIQGSTDSEWIYALAVSALDDPAGVNEPDAILAAIRRALSILRDARARHGITRSSSTNLMFCDGVNLVAVRFTFDFGRFDAGKLQGTTEYLSMWYTFGRDYGLHDGEWKLTGGAASADSVMVASEPLTRDFATWIEVPEYSALIVRHEGARRRAEIHALEV
MGSDKIHHHHHHMCSDHIRLPAQLAAGDVAIRVENLSKRFAVYHTRLERLKHIVAPRRTKGFAEFWALDHVDLTIGRGEACAIIGRNGSGKSTLLQILCGTLRATSGRVAVNGRVAALLELGAGFNADFTGRENVYLNGAVLGLSHTEINERFVEIEAFAEVGDFIDQPVKTYSSGMYVRLAFAIAIHVDPQILIVDEALAVGDARFQAKCLNRIKKMQADGVTLLFVSHDVSAVRTLCDRALWLDCGKVKMLADAFSVTAQYSQFLFEGEDYAVAGNGSGSPQDSSGALQSAASQDISPSAHPEEANQSRAGACGEELMAMHRPINHWGSHVGSIVQAGIYNARGERASTFVAGEPIEVRVIFRPPLNADRKTMSVAFSLKDLRGTDLIVSTTWDQRRLDFEQAGGEACIRFRLRNQLNRGSYLLAVALEDRAGVAPQYYEYIEGAHYFTSLVEDTLFGSFVVDVEQTIEPGHSLYANARVSV
MGSDKIHHHHHHMDAHRYCQERAAASGSSFYYSFVFLPTEVRRAITAFYALCRELDDVVDECHERQLAELKLAWWREEIGRFAAGAATHPATRALADTARGASVQPALLLEIVDGMAMDLEHARYADFRALKLYCHRAASVVGEIAAGIFEGARGEHDREVRRYAHELGLAFQLTNIIRDVGEDARRGRIYLPLDEMARFGVAEADVLEGRDTPAFRALMQFQYERAVAHYERALATLPSAARRAQRPGLVMAAIYRSLLDEIRRDGFPVLRARIALTPLRKLWLASRTWLFP
